Source: the supplement of paper PMC9732359
± gives the uncertainty stated by the source.

Assay: protein stability index of a GFP-peptide fusion (yeast GPS) (PSI 1-4); higher = more stable; sorted into four equal gates, so the index is relative within each strain
Procedure, shortened: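 Sequencing reads from sorted gates were used to score each peptide. The library consisted of tiled 17-residue yeast protein peptides fused downstream of GFP on a Cherry-expressing plasmid, pooled and carried in yeast. Mid-log cultures in leucine-free medium were split into four equal gates by GFP/Cherry ratio, and each gate's plasmids were PCR-amplified and Illumina-sequenced. The protein stability index adds up, over all gates, the read frequency multiplied by the gate number.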

Sequence | protein stability index (doa10∆) | protein stability index (pdr5∆) | protein stability index (san1∆) | protein stability index (ubr1∆)
LIAEETNNKKLLEKANN [SMC3] | 2.41 ± 0.055 | 2.68 ± 0.075 | 2.38 ± 0.073 | 3.32 ± 0.063
LIASHYGVSFFTIQSFV [BRR2] | 1.92 ± 0.043 | 1.89 ± 0.039 | 1.48 ± 0.063 | 1.81 ± 0.051
LIDFEYVNDVAIYNNPT [RRI2] | 2.73 ± 0.062 | 2.92 ± 0.038 | 2.67 ± 0.057 | 2.95 ± 0.049
LIENCKQVLDVDPVYKD [FAS2] | 3.14 ± 0.17 | 3.21 ± 0.12 | 3.33 ± 0.076 | 3.37 ± 0.068
LIENKIQNKKIQEQRVK [RPN8] | 2.61 ± 0.075 | 2.7 ± 0.073 | 2.74 ± 0.068 | 2.83 ± 0.049
LIHPENFTCNRKILNFK [SWI1] | 2.17 ± 0.069 | 2.49 ± 0.064 | 2.37 ± 0.064 | 2.88 ± 0.075
LIIRNDSLSGAVIAAIM [RPT3] | 3.17 ± 0.11 | 3.09 ± 0.11 | 2.94 ± 0.21 | 3.12 ± 0.098
LIKERQEMERKLEKKRN [ESC2] | – | – | 3.1 ± 0.15 | –
LIKKPLTVFYAIKKFKT [SSN3] | 1.51 ± 0.11 | 1.56 ± 0.048 | 1.77 ± 0.091 | 1.42 ± 0.075
LILQRLKDLNLTVSIKI [RGR1] | 1.76 ± 0.073 | 1.96 ± 0.071 | 2.65 ± 0.072 | 1.98 ± 0.052
LIPASDLSWSKQTDTGI [PRP8] | 2.32 ± 0.089 | 2.68 ± 0.063 | 2.79 ± 0.065 | 2.38 ± 0.044
LIPDGRHLVNRGREEAA [PRE10] | – | 1.41 ± 0.28 | – | –
LISGPRNQILVSITDAP [YMR129W/POM152] | 1.68 ± 0.092 | 1.81 ± 0.084 | 1.46 ± 0.1 | 1.68 ± 0.079
LISKPAKKNNFIEDLAP [UBP6] | 2.54 ± 0.084 | 2.73 ± 0.066 | 2.73 ± 0.069 | 2.7 ± 0.062
LITPAVRNTAPNIRELG [YCG1] | 2.57 ± 0.18 | 2.76 ± 0.15 | 2.68 ± 0.28 | 3.09 ± 0.093
LITSEMFDAFVSFYFED [SIN4] | 1.94 ± 0.1 | 2.59 ± 0.061 | 1.87 ± 0.093 | 2.93 ± 0.081
LKEDDSSLYEASLNALK [RPN1] | 3.44 ± 0.24 | 3.18 ± 0.14 | 3.5 ± 0.12 | 2.95 ± 0.093
LKEERAIEPETFTQLVS [PUP3] | 2.5 ± 0.057 | 2.85 ± 0.059 | 2.94 ± 0.047 | 2.62 ± 0.04
LKENAGSLTFLDNKGSG [YIL149C/MLP2] | 3.31 ± 0.17 | 3.37 ± 0.1 | 3.55 ± 0.12 | 3.48 ± 0.066
LKENEENEDGNIEERKE [BRR2] | – | 3.56 ± 0.27 | 3.13 ± 0.098 | –
LKEQELVLYDAENDVIE [BRR2] | 3.24 ± 0.16 | 2.9 ± 0.16 | 2.99 ± 0.11 | 2.74 ± 0.11
LKEQSEQLKEQMEDMEE [SMC4] | 3.21 ± 0.079 | 2.92 ± 0.13 | 3.3 ± 0.046 | 3.14 ± 0.1
LKERAKNISSQLDSKLM [YGR119C/NUP57] | 1.2 ± 0.2 | 1.46 ± 0.22 | 1.56 ± 0.26 | 1.28 ± 0.13
LKIFEGIPPPYDKKKRV [RPL16B] | 1.43 ± 0.15 | 2.51 ± 0.087 | 1.33 ± 0.24 | 1.51 ± 0.066
LKIIHDTFRWVGKKSAP [RPO31] | 2.51 ± 0.15 | 2.43 ± 0.21 | 2.35 ± 0.2 | 3.14 ± 0.11
LKKLEKEYELLTLQEDY [RPT3] | 2.37 ± 0.1 | 2.31 ± 0.13 | 2.6 ± 0.12 | 2.32 ± 0.052
LKLDKIIHVLTTMFENT [RGR1] | 2.07 ± 0.049 | 2.43 ± 0.069 | 2.39 ± 0.075 | 2.73 ± 0.044

Sequence | protein stability index (doa10∆) | protein stability index (pdr5∆) | protein stability index (san1∆) | protein stability index (ubr1∆)
LKLLAKSHVLLATPVQF [BRR2] | 1.89 ± 0.068 | 1.4 ± 0.058 | 1.36 ± 0.11 | 1.44 ± 0.07
LKLPADATTWRYSMSEQ [IRR1] | 2.68 ± 0.071 | 2.65 ± 0.058 | 2.69 ± 0.065 | 2.5 ± 0.059
LKRISDGLSFGKGESVI [SIR3] | 3.21 ± 0.28 | – | 3.33 ± 0.099 | 3.76 ± 0.19
LKRMEILKSPHLSKSPA [SIR4] | 2.96 ± 0.06 | 2.93 ± 0.066 | 2.95 ± 0.058 | 2.78 ± 0.045
LKSQMDTSKALLNVSVN [SKI6] | 3.22 ± 0.13 | 2.92 ± 0.12 | 3.23 ± 0.13 | 3.07 ± 0.053
LKTLTHKQIHTTIFVKS [POP7] | 1.94 ± 0.036 | 2.07 ± 0.038 | 1.77 ± 0.063 | 1.82 ± 0.029
LKTRYVGRQDPKKHLSE [RPN11] | 3.08 ± 0.087 | 3.11 ± 0.18 | 3.3 ± 0.078 | 3.26 ± 0.12
LKVYKVGDIVDIKANGS [RPL21A] | 2.35 ± 0.054 | 2.14 ± 0.044 | 2.07 ± 0.052 | 2.11 ± 0.029
LLAKAVANQTSATFLRI [RPT2] | 3 ± 0.13 | 2.27 ± 0.1 | 2.3 ± 0.14 | 2.21 ± 0.073
LLAREVLRLRGALVDRT [RPS0A] | 2.17 ± 0.21 | 2.15 ± 0.094 | 1.78 ± 0.15 | 2.03 ± 0.15
LLDDKKLMDEDSVATVI [YJR042W/NUP85] | 3.06 ± 0.15 | 2.91 ± 0.21 | 2.87 ± 0.14 | –
LLDEEAEQSFDQQSPWL [RPO21] | 3.27 ± 0.073 | 3.25 ± 0.065 | 3.24 ± 0.045 | 3.08 ± 0.048
LLDILVKGETRIQNRVK [PRP8] | 3.38 ± 0.14 | 2.98 ± 0.097 | 3.49 ± 0.096 | 2.94 ± 0.068
LLEKANNQQRLLLKKLD [SMC3] | 2.31 ± 0.074 | 2.56 ± 0.074 | 2.28 ± 0.06 | 2.39 ± 0.044
LLEKYNTNELKEVSSFL [MTR3] | 3.05 ± 0.054 | 2.76 ± 0.054 | 3.23 ± 0.046 | 3.1 ± 0.053
LLENPNCFFDVIVPQIV [DIS3] | 3.23 ± 0.13 | 3.12 ± 0.12 | 2.99 ± 0.065 | 2.36 ± 0.095
LLEPPAKELQGIDPDET [RPO31] | 3.19 ± 0.15 | 3.11 ± 0.14 | 3.31 ± 0.082 | 3.18 ± 0.12
LLHVAVSDSNDDVRRAA [RPN2] | 3.01 ± 0.087 | 3.22 ± 0.076 | 2.69 ± 0.12 | 3.13 ± 0.11
LLIEFPYLPKHYLVLLV [YJR042W/NUP85] | 1.98 ± 0.06 | 1.67 ± 0.053 | 2.07 ± 0.067 | 1.81 ± 0.047
LLIGCKLDQDDEIYIPI [CSI1] | – | 3.12 ± 0.18 | 3.01 ± 0.084 | 3.09 ± 0.11
LLLAAQIVSYCSNNKNS [SSN2] | 1.17 ± 0.045 | 1.42 ± 0.048 | 1.23 ± 0.083 | 1.34 ± 0.045
LLLNYLELIGVLSINPD [MED7] | 1.6 ± 0.067 | 1.78 ± 0.063 | 1.31 ± 0.14 | 1.49 ± 0.058
LLNILITYGIIKVPTYI [SRB8] | 1.57 ± 0.083 | 1.52 ± 0.09 | – | 1.03 ± 0.047
LLPNSKNVENTKNLSIL [DSN1] | 2.59 ± 0.1 | 2.5 ± 0.11 | 2.43 ± 0.12 | 2.83 ± 0.054
LLRIQMLLCVSYFLQER [PCI8] | 1.29 ± 0.046 | 1.45 ± 0.044 | 1.35 ± 0.074 | 1.22 ± 0.052
LLSDTFEVLAPKWERVF [RRI2] | 3.13 ± 0.11 | 2.48 ± 0.076 | 1.75 ± 0.091 | 2.93 ± 0.11
LLTEELAKSGSTEETTA [TAF14] | 3.05 ± 0.15 | 3.05 ± 0.091 | 2.82 ± 0.1 | 2.74 ± 0.087
